# Measurements as given in patent US20250388666A1 (BRIGHAM AND WOMEN S HOSPITAL, published 2025).
# T1: human GST-CEACAM1 (human, UniProt P13688 35-141, limits assumed)
# T1 construct: printed both as GST-CEACAM1 and CEACAM1-GST; also called human CEACAM1-GST protein; hCEACAM1-GST; not shown: GST tag
# T1 sequence: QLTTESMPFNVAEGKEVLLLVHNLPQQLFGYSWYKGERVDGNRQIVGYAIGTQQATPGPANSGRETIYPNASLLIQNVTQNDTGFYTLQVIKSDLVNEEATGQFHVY
# T2: CEACAM1-HIS (Sino Biologics Inc.) (Homo sapiens (Human), UniProt P13688 35-428)
# T2 construct: bought; not shown: His tag
# T2 sequence: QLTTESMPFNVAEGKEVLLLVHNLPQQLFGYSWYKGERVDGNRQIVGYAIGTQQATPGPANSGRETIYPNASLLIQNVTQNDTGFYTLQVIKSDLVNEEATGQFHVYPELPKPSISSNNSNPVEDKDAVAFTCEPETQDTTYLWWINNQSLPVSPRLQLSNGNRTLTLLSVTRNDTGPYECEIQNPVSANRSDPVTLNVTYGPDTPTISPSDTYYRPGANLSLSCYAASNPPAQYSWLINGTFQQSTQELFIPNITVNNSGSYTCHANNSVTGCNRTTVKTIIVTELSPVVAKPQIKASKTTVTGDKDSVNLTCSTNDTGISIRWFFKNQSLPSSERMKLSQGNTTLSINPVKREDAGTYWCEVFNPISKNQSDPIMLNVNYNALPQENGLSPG
# T3: CEACAM1 (Sino Biological) (human, UniProt P13688 35-428, limits assumed)
# T3 construct: may be the same as CEACAM1-HIS; also called hCEACAM1; biotinylated soluble CEACAM1
# T3 sequence: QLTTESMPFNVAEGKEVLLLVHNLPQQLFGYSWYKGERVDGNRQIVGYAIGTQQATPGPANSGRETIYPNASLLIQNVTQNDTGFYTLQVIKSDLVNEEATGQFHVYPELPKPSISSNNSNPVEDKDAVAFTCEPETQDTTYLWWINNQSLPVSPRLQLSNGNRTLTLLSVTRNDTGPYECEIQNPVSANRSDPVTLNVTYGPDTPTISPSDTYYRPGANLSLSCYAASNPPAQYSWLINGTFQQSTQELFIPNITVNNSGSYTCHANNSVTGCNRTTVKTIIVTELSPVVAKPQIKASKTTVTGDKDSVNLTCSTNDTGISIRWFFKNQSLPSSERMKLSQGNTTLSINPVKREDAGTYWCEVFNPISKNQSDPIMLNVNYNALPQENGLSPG
# Legend:
# human GST-CEACAM1 = target: T1, human GST-CEACAM1; assay: competition ELISA vs murine parent antibody
# Description: The binding of the purified chimeric antibody to human CEACAM1 was assessed in a competition ELISA assay. Nunc Immuno MaxiSorp 96 well flat bottom microtitre plates were pre-coated with 1 μg/ml human GST-CEACAM1 in 1×PBS, overnight at 4° C. The following day the plates were blocked for 1 hour at room temperature with 2% BSA/PBS before washing 2× with PBS/0.05% Tween 20 pH 7.4.
# The binding of the purified antibodies to human CEACAM1 were assessed in a competition ELISA assay as described above. The ability of each variant to compete against the murine parental antibody for binding to the GST-CEACAM1 was compared to that of the chimeric antibody (VH0/Vκ0), which was included on each plate.
# [1] = target: T2, CEACAM1-HIS (Sino Biologics Inc.); assay: SPR single-cycle, IgG on Protein A
# Description: As an alternative approach to assess the binding of the antibody combinations and the control antibodies to CEACAM1, a kinetic analysis was performed on a Biacore T200 running Biacore T200 Evaluation Software V2.0.1. All experiments were run at 25° C. with HBS-P+ running buffer (pH 7.4).
# In order to assess the binding of all Composite Human Antibody™ variants, single cycle kinetic analysis was performed on the supernatants of all the transiently transfected HEK EBNA cells. Purified chimeric antibody and purified chimeric antibody spiked into HEK EBNA media were used as positive controls. Supernatants were diluted in HBS-P+ to a concentration of 1 μg/mL (as determined by an IgG quantitation ELISA). At the start of each cycle, antibodies were loaded onto Fc2, Fc3 and Fc4 of a Protein A chip and captured at a flow rate of 8 μL/min to give an RU of ˜100. The surface was then allowed to stabilize. Single cycle kinetic data was obtained at a flow rate of […] to minimize any potential mass transfer effects. Multiple repeats of the chimeric antibody were performed to check the stability of the surface and analyte over the kinetic cycles. The signal from the reference channel Fc1 (no antibody) was subtracted from that of Fc2, Fc3 and Fc4 to correct for differences in non-specific binding to a reference surface. A 5 point 2-fold dilution range from 3.125 to 50 nM CEACAM1 without regeneration between each concentration was used. The association phase for the 5 injections of increasing concentrations of CEACAM1 was monitored for 150 seconds and a single dissociation phase was measured for 150 seconds following the last injection of CEACAM1. Regeneration of the Protein A was conducted using 2 injections of 10 mM glycine-HCL pH 1.5 followed by a stabilization period of 500 seconds.
# In the raw sensorgrams for the single cycle kinetics, the signal from each antibody blank run (no CEACAM1) was subtracted to correct for differences in surface stability.
# [2] = target: T3, CEACAM1 (Sino Biological); assay: SPR single-cycle
# In short: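 Humanized affinity-matured IgGs from crude supernatants captured on Protein A to ~100 RU, with CEACAM1 analyte injected at 25–100 nM (three-point, two-fold) in HBS-P+ without regeneration. 200 s association per injection, 300 s single dissociation; reference-channel and blank subtracted.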
Binder,average relative IC50 (normalized to chimeric antibody) (human GST-CEACAM1),Kd [1],relative KD to chimeric parental antibody [1],Kd [2],fold better than Parent (KD) [2]
"VH0/Vκ1 (antibody, V domains shown) VH: EVQLVESGGDLVKPGGSLKLACAASGFIFSSHGMSWVRQTPDKRLEWVATISSGGTYTYYPDSVKGRFTISRDNDKNTLYLQMNSLKSEDTAMYYCARHDFDYDAAWFAYWGQGTLVTVSS VL: QIVLTQSPALLSLSPGERATMSCSANSSVSYMYWYRQKPGQAPKPWIYLTSNLASGVPARFSGSGSGTDYTLTISSLEAEDFATYYCQQWSSNPPTFGQGTKLEIK",2.5 ratio,56.1 nM,1.3 ratio,,
"VH4/Vκ2 (antibody, V domains shown) VH: EVQLLESGGGLVQPGGSLRLSCAASGFIFSSHGMSWVRQAPGKGLEWVSTISSGGTYTYYADSVKGRFTISRDNSKNTLYLQMNSLRAEDTAVYYCARHDFDYDAAWFAYWGQGTLVTVSS VL: EIVLTQSPATLSLSPGERATLSCRANSSVSYMYWYQQKPGQAPRPWIYLTSNRATGVPARFSGSGSGTDYTLTISSLEPEDFATYYCQQWSSNPPTFGQGTKLEIK",,3950 nM,91.4 ratio,,
"VH4/Vκ1 (antibody, V domains shown) VH: EVQLLESGGGLVQPGGSLRLSCAASGFIFSSHGMSWVRQAPGKGLEWVSTISSGGTYTYYADSVKGRFTISRDNSKNTLYLQMNSLRAEDTAVYYCARHDFDYDAAWFAYWGQGTLVTVSS VL: QIVLTQSPALLSLSPGERATMSCSANSSVSYMYWYRQKPGQAPKPWIYLTSNLASGVPARFSGSGSGTDYTLTISSLEAEDFATYYCQQWSSNPPTFGQGTKLEIK",,243 nM,5.6 ratio,,
"VH3/Vκ1 (antibody, V domains shown) VH: EVQLLESGGGLVQPGGSLRLSCAASGFIFSSHGMSWVRQAPGKGLEWVATISSGGTYTYYADSVKGRFTISRDNSKNTLYLQMNSLRAEDTAMYYCARHDFDYDAAWFAYWGQGTLVTVSS VL: QIVLTQSPALLSLSPGERATMSCSANSSVSYMYWYRQKPGQAPKPWIYLTSNLASGVPARFSGSGSGTDYTLTISSLEAEDFATYYCQQWSSNPPTFGQGTKLEIK",,1500 nM,34.7 ratio,,
"VH3/Vκ2 (antibody, V domains shown) VH: EVQLLESGGGLVQPGGSLRLSCAASGFIFSSHGMSWVRQAPGKGLEWVATISSGGTYTYYADSVKGRFTISRDNSKNTLYLQMNSLRAEDTAMYYCARHDFDYDAAWFAYWGQGTLVTVSS VL: EIVLTQSPATLSLSPGERATLSCRANSSVSYMYWYQQKPGQAPRPWIYLTSNRATGVPARFSGSGSGTDYTLTISSLEPEDFATYYCQQWSSNPPTFGQGTKLEIK",,265 nM,6.1 ratio,,
"Parent VH/L5 (antibody, IgG4, V domains shown, IgG4 S241P, kappa) VH: EVQLLESGGGLVQPGGSLRLSCAASGFSFSDYYLYWVRQAPGKGLEWVATISVGGGQTSYADSVKGRFTISRDNSKNTLYLQMNSLRAEDTAMYYCTRGLYYGPAWFAYWGQGTLVTVSS VL: DIVMTQSPDSLAVSLGERATINCKSSQSLLNSANQKNYLAWYQQKPGQPPKLLIYFASTRESGVPDRFSGSGSGTDFTLTISSLQAEDVAVYYCQSHYPFAFTFGGGTKVEIK",,,,66 nM,2.42 fold
"VH1/Vκ0 (antibody, IgG4, V domains shown, IgG4 (S241P), kappa) VH: EVQLLESGGGLVQPGGSLRLSCAASGFSFSDYYLYWVRQAPGKGLEWVATISVGGGNTSYPDSVKGRFTISRDNSKNTLYLQMNSLRAEDTAMYYCTRGLYYGPAWFAYWGQGTLVTVSS VL: not shown",1 ratio,76.6 nM,1.8 ratio,,
"Parent VH/L6 (antibody, IgG4, V domains shown, IgG4 S241P, kappa) VH: EVQLLESGGGLVQPGGSLRLSCAASGFSFSDYYLYWVRQAPGKGLEWVATISVGGGQTSYADSVKGRFTISRDNSKNTLYLQMNSLRAEDTAMYYCTRGLYYGPAWFAYWGQGTLVTVSS VL: DIVMTQSPDSLAVSLGERATINCKSSQSLLNSANQKNYLAWYQQKPGQPPKLLIYFASTRESGVPDRFSGSGSGTDFTLTISSLQAEDVAVYYCQSHYPFSFTFGGGTKVEIK",,,,57 nM,2.81 fold
"Parent VH/L20 (antibody, IgG4, V domains shown, IgG4 S241P, kappa) VH: EVQLLESGGGLVQPGGSLRLSCAASGFSFSDYYLYWVRQAPGKGLEWVATISVGGGQTSYADSVKGRFTISRDNSKNTLYLQMNSLRAEDTAMYYCTRGLYYGPAWFAYWGQGTLVTVSS VL: DIVMTQSPDSLAVSLGERATINCKSSQSLLNSANQKNYLAWYQQKPGQPPKLLIYFASTRESGVPDRFSGSGSGTDFTLTISSLQAEDVAVYYCQSHFPYPLTFGGGTKVEIK",,,,87 nM,1.83 fold
"Parent VH/L19 (antibody, IgG4, V domains shown, IgG4 S241P, kappa) VH: EVQLLESGGGLVQPGGSLRLSCAASGFSFSDYYLYWVRQAPGKGLEWVATISVGGGQTSYADSVKGRFTISRDNSKNTLYLQMNSLRAEDTAMYYCTRGLYYGPAWFAYWGQGTLVTVSS VL: DIVMTQSPDSLAVSLGERATINCKSSQSLLNSANQKNYLAWYQQKPGQPPKLLIYFASTRESGVPDRFSGSGSGTDFTLTISSLQAEDVAVYYCQSHIYPNFTFGGGTKVEIK",,,,77 nM,2.08 fold
"VH2/Vκ4 (antibody, IgG4, V domains shown, IgG4 (S241P), kappa) VH: EVQLLESGGGLVQPGGSLRLSCAASGFSFSDYYLYWVRQAPGKGLEWVATISVGGGNTSYADSVKGRFTISRDNSKNTLYLQMNSLRAEDTAMYYCTRGLYYGPAWFAYWGQGTLVTVSS VL: not shown",7.2 ratio,77.8 nM,1.8 ratio,,
"Parent VH/L17 (antibody, IgG4, V domains shown, IgG4 S241P, kappa) VH: EVQLLESGGGLVQPGGSLRLSCAASGFSFSDYYLYWVRQAPGKGLEWVATISVGGGQTSYADSVKGRFTISRDNSKNTLYLQMNSLRAEDTAMYYCTRGLYYGPAWFAYWGQGTLVTVSS VL: DIVMTQSPDSLAVSLGERATINCKSSQSLLNSANQKNYLAWYQQKPGQPPKLLIYFASTRESGVPDRFSGSGSGTDFTLTISSLQAEDVAVYYCQSHYPYPYTFGGGTKVEIK",,,,76 nM,2.08 fold
